The experiment addresses human insulin-like growth factor 1 receptor (Homo sapiens, UniProt P08069). The experiment is described as follows: SPR. (In SPR one partner is held on a chip, and binding of the other changes the refractive index at the surface.)

Chain of human insulin-like growth factor 1 receptor (P08069 31-1367): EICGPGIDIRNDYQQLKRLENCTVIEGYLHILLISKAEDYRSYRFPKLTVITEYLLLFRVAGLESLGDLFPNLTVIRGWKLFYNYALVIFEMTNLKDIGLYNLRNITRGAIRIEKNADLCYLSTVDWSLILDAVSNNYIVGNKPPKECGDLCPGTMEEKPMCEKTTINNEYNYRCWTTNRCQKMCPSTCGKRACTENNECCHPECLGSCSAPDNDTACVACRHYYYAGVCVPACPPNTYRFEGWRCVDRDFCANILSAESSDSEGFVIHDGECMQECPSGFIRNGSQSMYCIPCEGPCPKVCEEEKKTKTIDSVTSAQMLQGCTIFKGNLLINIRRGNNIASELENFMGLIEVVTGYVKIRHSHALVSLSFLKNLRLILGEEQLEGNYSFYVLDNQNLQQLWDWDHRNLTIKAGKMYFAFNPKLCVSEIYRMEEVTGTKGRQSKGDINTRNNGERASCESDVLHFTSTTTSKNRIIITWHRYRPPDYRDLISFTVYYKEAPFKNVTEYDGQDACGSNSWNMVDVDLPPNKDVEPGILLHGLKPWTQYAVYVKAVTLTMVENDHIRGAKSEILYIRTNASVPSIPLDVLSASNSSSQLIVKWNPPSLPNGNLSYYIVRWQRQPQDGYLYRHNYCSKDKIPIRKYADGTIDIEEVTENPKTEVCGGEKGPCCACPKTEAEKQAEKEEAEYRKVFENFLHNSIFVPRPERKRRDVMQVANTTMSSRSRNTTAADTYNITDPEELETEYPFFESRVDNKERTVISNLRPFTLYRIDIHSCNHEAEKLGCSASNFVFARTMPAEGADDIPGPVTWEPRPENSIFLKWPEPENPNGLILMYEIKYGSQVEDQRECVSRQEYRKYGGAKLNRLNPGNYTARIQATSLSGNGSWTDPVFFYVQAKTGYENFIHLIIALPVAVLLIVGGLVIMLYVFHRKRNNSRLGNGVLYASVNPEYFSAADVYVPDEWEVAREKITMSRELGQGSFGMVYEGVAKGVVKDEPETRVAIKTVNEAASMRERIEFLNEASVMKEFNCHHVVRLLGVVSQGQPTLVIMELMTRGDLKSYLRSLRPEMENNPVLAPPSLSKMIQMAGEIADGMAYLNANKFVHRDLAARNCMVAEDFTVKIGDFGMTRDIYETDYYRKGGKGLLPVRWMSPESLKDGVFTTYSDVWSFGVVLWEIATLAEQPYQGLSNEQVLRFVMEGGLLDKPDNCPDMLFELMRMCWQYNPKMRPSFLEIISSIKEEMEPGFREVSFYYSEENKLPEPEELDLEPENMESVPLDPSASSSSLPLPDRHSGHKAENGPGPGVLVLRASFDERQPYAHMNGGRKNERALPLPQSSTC

B1: scFv of AK18 (IGF-1R-binding region) (scFv, V domains shown)
VH: QVELVESGGGVVQPGRSQRLSCAASGFTFSSYGMHWVRQAPGKGLEWVAIIWFDGSSTYYADSVRGRFTISRDNSKNTLYLQMNSLRAEDTAVYFCARELGRRYFDLWGRGTLVSVSS
VL: EIVLTQSPATLSLSPGERATLSCRASQSVSSYLAWYQQKPGQAPRLLIYDASKRATGIPARFSGSGSGTDFTLTISSLEPEDFAVYYCQQRSKWPPWTFGQGTKVESK
Turning to B1, the binding result is “binds”.

B2: scFv of F13B5 (IGF-1R-binding region) (scFv, V domains shown)
VH: QVELVESGGGVVQPGRSQRLSCAASGFTFSSYGMHWVRQAPGKGLEWVAIIWFDGSSTYYADSVRGRFTISRDNSKNTLYLQMNSLRAEDTAVYFCARELGRRYFDLWGRGTLVSVSS
VL: EIVLTQSPATLSLSPGERATLSCRASQSVSSYLAWYQQKPGQAPRLLIYQASKRATGIPARFSGSGSGTDFTLTISSLEPEDFAVYYCQQRSKYPPWTFGQGTKVESK
B2: the binding result is listed as “binds”.
